Test results: IntAct's records for PubMed 29892012

B1: Vacuolar protein-sorting-associated protein 25 (Homo sapiens), Q9BRG1 (parent)
chain: MAMSFEWPWQYRFPPFFTLQPNVDTRQKQLAAWCSLVLSFCRLHKQSSMTVMEAQESPLFNNVKLQRKLPVESIQIVLEELRKKGNLEWLDKSKSSFLIMWRRPEEWGKLIYQWVSRSGQNNSVFTLYELTNGEDTEDEEFHGLDEATLLRALQALQQEHKAEIITVSDGRGVKFF
partner: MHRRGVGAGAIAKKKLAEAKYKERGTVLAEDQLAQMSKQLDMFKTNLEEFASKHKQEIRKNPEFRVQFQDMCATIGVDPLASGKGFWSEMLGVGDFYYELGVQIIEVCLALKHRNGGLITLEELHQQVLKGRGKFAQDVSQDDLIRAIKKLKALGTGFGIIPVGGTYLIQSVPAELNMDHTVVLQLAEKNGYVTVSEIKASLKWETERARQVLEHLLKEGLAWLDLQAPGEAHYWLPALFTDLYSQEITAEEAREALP
B2: CLK4-associating serine/arginine rich protein (Homo sapiens), Q8N2M8 (parent)
chain: MWHEARKHERKLRGMMVDYKKRAERRREYYEKIKKDPAQFLQVHGRACKVHLDSAVALAAESPVNMMPWQGDTNNMIDRFDVRAHLDHIPDYTPPLLTTISPEQESDERKCNYERYRGLVQNDFAGISEEQCLYQIYIDELYGGLQRPSEDEKKKLAEKKASIGYTYEDSTVAEVEKAAEKPEEEESAAEEESNSDEDEVIPDIDVEVDVDELNQEQVADLNKQATTYGMADGDFVRMLRKDKEEAEAIKHAKALEEEKAMYSGRRSRRQRREFREKRLRGRKISPPSYARRDSPTYDPYKRSPSESSSESRSRSRSPTPGREEKITFITSFGGSDEEAAAAAAAAAASGVTTGKPPAPPQPGGPAPGRNASARRRSSSSSSSSSASRTSSSRSSSRSSSRSRRGGGYYRSGRHARSRSRSWSRSRSRSRRYSRSRSRGRRHSGGGSRDGHRYSRSPARRGGYGPRRRSRSRSHSGDRYRRGGRGLRHHSSSRSRSSWSLSPSRSRSLTRSRSHSPSPSQSRSRSRSRSQSPSPSPAREKLTRPAASPAVGEKLKKTEPAAGKETGAAKPKLTPQEKLKLRMQKALNRQFKADKKAAQEKMIQQEHERQEREDELRAMARKIRMKERERREKEREEWERQYSRQSRSPSPRYSREYSSSRRRSRSRSRSPHYRH
partner: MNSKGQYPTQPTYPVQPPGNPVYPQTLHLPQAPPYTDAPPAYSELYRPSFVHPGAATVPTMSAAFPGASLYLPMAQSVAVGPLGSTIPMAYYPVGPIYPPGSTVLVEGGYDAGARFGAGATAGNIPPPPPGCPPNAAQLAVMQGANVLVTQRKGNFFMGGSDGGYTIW
B3: Cyclic AMP-dependent transcription factor ATF-4 (Homo sapiens), P18848 (parent)
chain: MTEMSFLSSEVLVGDLMSPFDQSGLGAEESLGLLDDYLEVAKHFKPHGFSSDKAKAGSSEWLAVDGLVSPSNNSKEDAFSGTDWMLEKMDLKEFDLDALLGIDDLETMPDDLLTTLDDTCDLFAPLVQETNKQPPQTVNPIGHLPESLTKPDQVAPFTFLQPLPLSPGVLSSTPDHSFSLELGSEVDITEGDRKPDYTAYVAMIPQCIKEEDTPSDNDSGICMSPESYLGSPQHSPSTRGSPNRSLPSPGVLCGSARPKPYDPPGEKMVAAKVKGEKLDKKLKKMEQNKTAATRYRQKKRAEQEALTGECKELEKKNEALKERADSLAKEIQYLKDLIEEVRKARGKKRVP
B4: Vacuolar protein-sorting-associated protein 25 (Homo sapiens), Q9BRG1 (parent)
chain: B1 chain
partner: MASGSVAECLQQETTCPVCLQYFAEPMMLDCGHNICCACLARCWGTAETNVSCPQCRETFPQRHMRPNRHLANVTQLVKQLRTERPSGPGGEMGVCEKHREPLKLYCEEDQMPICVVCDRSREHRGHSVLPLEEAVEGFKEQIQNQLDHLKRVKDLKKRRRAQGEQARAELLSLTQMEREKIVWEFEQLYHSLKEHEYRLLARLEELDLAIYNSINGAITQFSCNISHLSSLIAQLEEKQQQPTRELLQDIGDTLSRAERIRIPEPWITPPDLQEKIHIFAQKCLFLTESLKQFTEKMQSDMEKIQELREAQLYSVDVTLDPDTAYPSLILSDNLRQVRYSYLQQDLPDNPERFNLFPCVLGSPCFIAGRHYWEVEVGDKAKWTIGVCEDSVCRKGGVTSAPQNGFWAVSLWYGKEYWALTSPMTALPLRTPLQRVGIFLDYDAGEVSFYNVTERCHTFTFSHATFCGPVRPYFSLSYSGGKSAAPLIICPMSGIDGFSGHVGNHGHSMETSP
B5: Kinetochore protein NDC80 homolog (Homo sapiens), O14777 (parent)
chain: MKRSSVSSGGAGRLSMQELRSQDVNKQGLYTPQTKEKPTFGKLSINKPTSERKVSLFGKRTSGHGSRNSQLGIFSSSEKIKDPRPLNDKAFIQQCIRQLCEFLTENGYAHNVSMKSLQAPSVKDFLKIFTFLYGFLCPSYELPDTKFEEEVPRIFKDLGYPFALSKSSMYTVGAPHTWPHIVAALVWLIDCIKIHTAMKESSPLFDDGQPWGEETEDGIMHNKLFLDYTIKCYESFMSGADSFDEMNAELQSKLKDLFNVDAFKLESLEAKNRALNEQIARLEQEREKEPNRLESLRKLKASLQGDVQKYQAYMSNLESHSAILDQKLNGLNEEIARVELECETIKQENTRLQNIIDNQKYSVADIERINHERNELQQTINKLTKDLEAEQQKLWNEELKYARGKEAIETQLAEYHKLARKLKLIPKGAENSKGYDFEIKFNPEAGANCLVKYRAQVYVPLKELLNETEEEINKALNKKMGLEDTLEQLNAMITESKRSVRTLKEEVQKLDDLYQQKIKEAEEEDEKCASELESLEKHKHLLESTVNQGLSEAMNELDAVQREYQLVVQTTTEERRKVGNNLQRLLEMVATHVGSVEKHLEEQIAKVDREYEECMSEDLSENIKEIRDKYEKKATLIKSSEE
partner: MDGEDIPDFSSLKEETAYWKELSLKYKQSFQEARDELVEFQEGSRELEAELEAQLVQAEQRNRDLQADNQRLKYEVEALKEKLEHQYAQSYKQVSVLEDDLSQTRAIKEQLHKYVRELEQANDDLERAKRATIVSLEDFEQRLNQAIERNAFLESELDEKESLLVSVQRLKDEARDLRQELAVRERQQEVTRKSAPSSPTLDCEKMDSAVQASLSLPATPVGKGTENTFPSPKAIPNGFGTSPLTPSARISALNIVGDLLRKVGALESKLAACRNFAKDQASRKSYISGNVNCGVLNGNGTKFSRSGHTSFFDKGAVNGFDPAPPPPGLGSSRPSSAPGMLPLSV

Variants of: B1
Conditions: with snf8_human SNF8, Q96H20

Row | effect of a mutation on the interaction | Variant
1 | with no effect | P58Q

Variants of: B2
Conditions: with dazp2_human DAZAP2, Q15038

Row | effect of a mutation on the interaction | Variant
2 | with no effect | I163V

Variants of: B3
Conditions: with cc106_human CCDC106, Q9BWC9
cc106_human CCDC106, Q9BWC9, sequence (Q9BWC9 whole entry): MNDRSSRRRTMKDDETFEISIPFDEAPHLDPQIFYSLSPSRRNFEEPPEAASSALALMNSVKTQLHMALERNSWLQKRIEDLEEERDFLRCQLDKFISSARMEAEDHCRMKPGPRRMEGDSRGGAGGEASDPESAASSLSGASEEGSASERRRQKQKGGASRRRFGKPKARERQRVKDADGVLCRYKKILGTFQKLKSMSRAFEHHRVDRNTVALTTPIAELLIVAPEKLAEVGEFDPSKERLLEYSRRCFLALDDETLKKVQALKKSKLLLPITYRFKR

Row | effect of a mutation on the interaction | Variant
3 | with no effect | L180F

Variants of: B3
Conditions: with ldoc1_human LDOC1, O95751
ldoc1_human LDOC1, O95751, sequence (O95751 whole entry): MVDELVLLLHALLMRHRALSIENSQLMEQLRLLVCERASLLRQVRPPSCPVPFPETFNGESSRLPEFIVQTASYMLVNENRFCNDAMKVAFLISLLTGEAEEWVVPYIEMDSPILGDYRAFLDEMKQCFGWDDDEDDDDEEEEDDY

Row | effect of a mutation on the interaction | Variant
4 | with no effect | L180F

Variants of: B3
Conditions: with gps2_human GPS2, Q13227
gps2_human GPS2, Q13227, sequence (Q13227 whole entry): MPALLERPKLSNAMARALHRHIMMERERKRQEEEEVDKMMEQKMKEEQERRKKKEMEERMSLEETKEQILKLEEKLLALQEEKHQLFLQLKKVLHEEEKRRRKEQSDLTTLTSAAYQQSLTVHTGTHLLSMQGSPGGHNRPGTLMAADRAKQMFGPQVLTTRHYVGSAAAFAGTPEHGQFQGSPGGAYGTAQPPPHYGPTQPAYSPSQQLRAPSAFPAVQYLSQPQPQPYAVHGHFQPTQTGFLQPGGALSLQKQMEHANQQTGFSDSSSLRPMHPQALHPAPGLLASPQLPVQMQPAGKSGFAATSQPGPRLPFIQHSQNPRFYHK

Row | effect of a mutation on the interaction | Variant
5 | with no effect | L180F

Variants of: B3
Conditions: with tthy_human TTR

Row | effect of a mutation on the interaction | Variant
6 | with no effect | L180F

Variants of: B3
Conditions: with fbw1a_human BTRC

Row | effect of a mutation on the interaction | Variant
7 | with no effect | L180F

Variants of: B4
Conditions: with tri27_human TRIM27, P14373

Row | effect of a mutation on the interaction | Variant
8 | disrupting interaction strength | P58Q

Variants of: B5
Conditions: with ndel1_human NDEL1, Q9GZM8

Row | effect of a mutation on the interaction | Variant
9 | with no effect | K288E
